# Values of other authors in PMC7590224.
# Test system: hLarp7 xRRM domain (human)
# Conditions: No direct binding assays in this paper (only in vivo E. coli suppressor tRNA reporter assays, left out); conditions of the cited Kd values not given
row,Substance,Kd [nM]
1,7SK RNA stem-loop 4 (SL4),129
2,7SK SL4 U311A,51
